Assay results reported in the supplement of paper PMC9732359.
± gives the uncertainty stated by the source.

Assay: protein stability index of a GFP-peptide fusion (yeast GPS) (PSI 1-4); higher = more stable; sorted into four equal gates, so the index is relative within each strain
Outline: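 Tiled 17-residue peptides from yeast proteins were fused downstream of GFP on a plasmid that also expresses Cherry, and the pooled library was carried in yeast. Mid-log cultures grown in leucine-free medium were sorted into four equal gates by GFP/Cherry fluorescence ratio. Plasmids from each gate were PCR-amplified and Illumina-sequenced, and reads were assigned to strains by barcodes. Each peptide's protein stability index is the sum, over gates, of the gate's read frequency multiplied by its gate number.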

| Sequence | protein stability index (doa10∆) | protein stability index (pdr5∆) | protein stability index (san1∆) | protein stability index (ubr1∆) |
| --- | --- | --- | --- | --- |
| EQHEEKAAEGEEKEEEN [QCR6] | 3.25 ± 0.12 | 2.92 ± 0.18 | 2.98 ± 0.23 | 3.23 ± 0.079 |
| YSQSPPRSPGRSPTRRL [SMC4] | 2.57 ± 0.15 | 3.19 ± 0.11 | 2.98 ± 0.089 | 3.04 ± 0.11 |
| IEANVTVKTSDDYVLRI [RPS1A] | 2.98 ± 0.035 | 2.9 ± 0.038 | 2.96 ± 0.036 | 2.726 ± 0.027 |
| VDSRTKIRMLTQAAEFL [IRR1] | 2.47 ± 0.11 | 2.96 ± 0.084 | 1.78 ± 0.11 | 2.81 ± 0.079 |
| GDKVVVTIWYRAPELLL [SSN3] | 1.74 ± 0.058 | 1.78 ± 0.072 | 1.74 ± 0.068 | 2.05 ± 0.044 |
| DTVNSALENDVATNIVN [YML103C/NUP188] | 2.87 ± 0.051 | 3.14 ± 0.064 | 3.09 ± 0.046 | 3.19 ± 0.055 |
| LLGPTLEDHTPPEDKPN [QCR10] | 2.5 ± 0.057 | 2.81 ± 0.064 | 2.94 ± 0.082 | 2.94 ± 0.033 |
| PQDYVLERVKRIMEKSV [YML031W/NDC1] | 2.6 ± 0.059 | 2.66 ± 0.045 | 2.55 ± 0.087 | 2.12 ± 0.041 |
| RTAKAYLKVSEEEIKKF [PRP8] | 2.98 ± 0.057 | 3.11 ± 0.075 | 3.12 ± 0.053 | 3.26 ± 0.049 |
| EKLLKELENNEFTENEL [ITC1] | 3.43 ± 0.074 | 3.21 ± 0.078 | 3.33 ± 0.069 | 3.33 ± 0.097 |
| KVAHTSYKRIYGEYPPT [PRE8] | 3.02 ± 0.062 | 3.14 ± 0.068 | 3.01 ± 0.085 | 3.09 ± 0.049 |
| EIYKQLNDRQEEISRLQ [YIL149C/MLP2] | 3.42 ± 0.08 | 3.57 ± 0.078 | 3.6 ± 0.041 | 3.38 ± 0.07 |
| IQMNNSLQNNLQNNINN [SNF11] | 3.35 ± 0.093 | 3.32 ± 0.088 | 3.06 ± 0.087 | 3.31 ± 0.064 |
| GSQFIVVSLKEGMFANA [SMC2] | – | 3.64 ± 0.24 | 3.44 ± 0.2 | 3.4 ± 0.057 |
| VNEDPIFHPMIHYSWSF [YML103C/NUP188] | 2.56 ± 0.056 | 2.46 ± 0.039 | 2.42 ± 0.045 | 2.49 ± 0.046 |
| STIDANFADKYDEVKKH [RPL8A] | 2.5 ± 0.12 | 3.08 ± 0.11 | 2.92 ± 0.081 | 2.93 ± 0.1 |
| LAPSKHQPITSEQKMKE [SIR4] | 2.31 ± 0.077 | 2.37 ± 0.098 | 2.61 ± 0.1 | 2.29 ± 0.24 |
| ATDEESVRLQRFYQLGV [CSN12] | 3.13 ± 0.16 | 3.13 ± 0.15 | 2.92 ± 0.11 | 3.13 ± 0.099 |
| LIVRAKNHTHNLPGNIT [RRP4] | 2.77 ± 0.071 | 2.96 ± 0.049 | 2.89 ± 0.066 | 2.94 ± 0.052 |
| GTTATGTGLFGQQTAQP [YGR119C/NUP57] | 2.91 ± 0.16 | 2.76 ± 0.079 | 3.02 ± 0.18 | 3 ± 0.14 |
| VNVEKFNVEYFAKEKLT [RPL6A] | 1.84 ± 0.039 | 1.96 ± 0.044 | 2.08 ± 0.069 | 2.37 ± 0.036 |
| AVKRGTCAVGVKGKNCV [PRE6] | 1.06 ± 0.11 | 1.62 ± 0.18 | 1.39 ± 0.27 | 2.51 ± 0.17 |
| AIPSRMTVAHLIECLLS [RPB2] | 1.39 ± 0.098 | 1.85 ± 0.094 | 1.39 ± 0.25 | 1.67 ± 0.09 |
| NRLLPNLPEEERKQIHE [GRR1] | 1.26 ± 0.14 | 1.41 ± 0.079 | 1.71 ± 0.15 | 2.59 ± 0.13 |
| RLSNEMHALKNRSEQNG [RGR1] | 3.32 ± 0.12 | 3.25 ± 0.17 | 3.09 ± 0.16 | 2.9 ± 0.12 |

| Sequence | protein stability index (doa10∆) | protein stability index (pdr5∆) | protein stability index (san1∆) | protein stability index (ubr1∆) |
| --- | --- | --- | --- | --- |
| RSAWNNNNDNDANRNAN [GRR1] | 2.55 ± 0.041 | 2.65 ± 0.036 | 2.62 ± 0.034 | 2.7 ± 0.039 |
| PSFGKRHNKSHTLCNRC [RPL37A] | 2.54 ± 0.1 | 2.84 ± 0.08 | 2.97 ± 0.12 | 2.68 ± 0.21 |
| NSSKYYINEKESSYTEV [SMC4] | 3.2 ± 0.22 | 2.38 ± 0.1 | 2.43 ± 0.12 | 1.89 ± 0.11 |
| DGTGVRVIVAGTLDINP [FAS1] | 2.36 ± 0.068 | 2.87 ± 0.071 | 2.99 ± 0.065 | 2.59 ± 0.061 |
| IKFFWNNTHVGRQFCNR [YLR018C/POM34] | – | 1.68 ± 0.14 | 1.74 ± 0.27 | 1.9 ± 0.1 |
| IFLHSLPVKEFQIIDTL [RPS2] | 2.49 ± 0.12 | 2.54 ± 0.089 | 2.44 ± 0.073 | 2.49 ± 0.061 |
| INDFKKIGRENENENED [POP5] | – | 3.38 ± 0.22 | 2.76 ± 0.19 | 2.49 ± 0.27 |
| KVKHDSQPFIKFLNFRP [SSN2] | 2.88 ± 0.06 | 2.6 ± 0.063 | 2.49 ± 0.079 | 2.63 ± 0.041 |
| TPSDLSESGSKLNVDQF [POP1] | 3.46 ± 0.098 | 3.4 ± 0.094 | 3.19 ± 0.072 | 3.21 ± 0.1 |
| LKSPVLSKLCVPVANQF [QCR7] | 2.22 ± 0.053 | 2.45 ± 0.065 | 1.92 ± 0.053 | 2.01 ± 0.031 |
| VRELFEMARTKKACIIF [RPT1] | 1.12 ± 0.093 | 1.29 ± 0.11 | 1.08 ± 0.21 | 1.66 ± 0.14 |
| VSEITKLKFFPSGEALI [RPN14] | 2.55 ± 0.089 | 2.76 ± 0.069 | 2.95 ± 0.064 | 3.18 ± 0.059 |
| MAKQLIRLANESSELNK [CSN12] | 3 ± 0.08 | 2.62 ± 0.064 | 2.96 ± 0.079 | 2.63 ± 0.073 |
| SRNKALELNLSVLHSWV [YJL039C/NUP192] | – | 2.5 ± 0.14 | 2.84 ± 0.08 | 2.51 ± 0.24 |
| ARSGLRIGRIEDVTPVP [RPS14A] | 2.69 ± 0.11 | 2.91 ± 0.12 | 2.92 ± 0.097 | 2.85 ± 0.072 |
| VIDGKLPFMQNAGPNSN [YDL088C/ASM4] | 2.93 ± 0.049 | 3.04 ± 0.054 | 2.91 ± 0.037 | 2.92 ± 0.04 |
| DIVPYFLKHNGEEDAVD [RPN1] | 3.26 ± 0.12 | 3.27 ± 0.18 | 2.95 ± 0.17 | 3.22 ± 0.094 |
| KELKEKEAAESPEEADV [PUP2] | 3.44 ± 0.082 | 3.56 ± 0.086 | 3.02 ± 0.057 | 3.32 ± 0.054 |
| STEETTANTGTIGKRRT [TAF14] | 3.07 ± 0.13 | 3.27 ± 0.1 | 3.38 ± 0.088 | 2.77 ± 0.12 |
| HTSSSDGNNEIFTCQIM [RPN4] | 2.57 ± 0.094 | 2.89 ± 0.082 | 3.08 ± 0.064 | 2.86 ± 0.086 |
| ELESITESITHDSSNGL [NUT1] | 2.95 ± 0.1 | 3.27 ± 0.074 | 3.25 ± 0.051 | 3.2 ± 0.067 |
| NEIANSIIQSKQDCVDW [BRR2] | 2.61 ± 0.069 | 2.87 ± 0.071 | 2.73 ± 0.071 | 2.88 ± 0.079 |
| DKPLLKAGRAFHKYRLK [RPL2A] | 2.96 ± 0.085 | 3.07 ± 0.058 | 2.16 ± 0.059 | 2.04 ± 0.061 |
| SGEKIDFLLSDWNKRFS [BRR2] | 2.37 ± 0.061 | 2.72 ± 0.055 | 2.88 ± 0.067 | 2.79 ± 0.056 |
